The labels stand for the following.
B1: MBP-PIF6_(1-100)-His6 [A. thaliana] / PhyB_(1-651)-Avitag-His6 [modified: phycocyanobilin chromophore; biotin on the Avitag; phycocyanobilin chromophore; biotin on the Avitag] [A. thaliana] (parent)
chain 1: MMFLPTDYCCRLSDQEYMELVFENGQILAKGQRSNVSLHNQRTKSIMDLYEAEYNEDFMKSIIHGGGGAITNLGDTQVVPQSHVAAAHETNMLESNKHVD
chain 2: MVSGVGGSGGGRGGGRGGEEEPSSSHTPNNRRGGEQAQSSGTKSLRPRSNTESMSKAIQQYTVDARLHAVFEQSGESGKSFDYSQSLKTTTYGSSVPEQQITAYLSRIQRGGYIQPFGCMIAVDESSFRIIGYSENAREMLGIMPQSVPTLEKPEILAMGTDVRSLFTSSSSILLERAFVAREITLLNPVWIHSKNTGKPFYAILHRIDVGVVIDLEPARTEDPALSIAGAVQSQKLAVRAISQLQALPGGDIKLLCDTVVESVRDLTGYDRVMVYKFHEDEHGEVVAESKRDDLEPYIGLHYPATDIPQASRFLFKQNRVRMIVDCNATPVLVVQDDRLTQSMCLVGSTLRAPHGCHSQYMANMGSIASLAMAVIINGNEDDGSNVASGRSSMRLWGLVVCHHTSSRCIPFPLRYACEFLMQAFGLQLNMELQLALQMSEKRVLRTQTLLCDMLLRDSPAGIVTQSPSIMDLVKCDGAAFLYHGKYYPLGVAPSEVQIKDVVEWLLANHADSTGLSTDSLGDAGYPGAAALGDAVCGMAVAYITKRDFLFWFRSHTAKEIKWGGAKHHPEDKDDGQRMHPRSSFQAFLEVVKSRSQPWETAEMDAIHSLQLILRDSFKESEAAMNSKVVDGVVQPCRDMAGEQGIDELGA

Experimental findings from PMC6488296 are described below.

Variants of B1 are the subject of this test. Kind of test: size exclusion chromatography (gel filtration, Superdex 200 10/300 GL, A671 nm). Conditions: with PhyB_(1-651)-Avitag-His6 [modified: phycocyanobilin chromophore, PhyB illuminated with 660 nm light, PhyB:MBP-PIF 2:1 molar ratio, 60 min at room temperature, parent: 56, read off a plot. (In gel filtration, larger molecules generally elute earlier.)
With chain 1 MMFLPTDYCCRLSDQEYMELVFENGQILAKGQRSNVALHNQRTKSIMDLYEAEYNEDFMKSIIHGGGGAITNLGDTQVVPQSHVAAAHETNMLESNKHVD [chain 1 S37A], the response (% PhyB-PIF complex) was 57.

Take chain 1 MMFLPTDYSSRLSDQEYMELVFENGQILAKGQRSNVSLHNQRTKSIMDLYEAEYNEDFMKSIIHGGGGAITNLGDTQVVPQSHVAAAHETNMLESNKHVD [chain 1 C9S C10S]: the response (% PhyB-PIF complex) came out at 64.

As for chain 1 MMFLPTDYSSRLSDQEYMELVFENGQILAKGQRSQVSLHNQRTKSIMDLYEAEYNEDFMKSIIHGGGGAITNLGDTQVVPQSHVAAAHETNMLESNKHVD [chain 1 C9S C10S N35Q], the response (% PhyB-PIF complex) worked out at 54.

Turning to chain 1 MMFLPTDYCCRLSDQEYMELVFENGQILAKGQRSQVSLHNQRTKSIMDLYEAEYNEDFMKSIIHGGGGAITNLGDTQVVPQSHVAAAHETNMLESNKHVD [chain 1 N35Q], the response (% PhyB-PIF complex) amounted to 52.
